Two molecules from patent US20250066456A1 (NOVAVAX, published 2025) can be followed below.

Like-named read-outs stand apart in the source and are kept apart here.

The target in assay [1] is Delta Plus CoV S glycoprotein (recombinant) (Severe acute respiratory syndrome …, UniProt P0DTC2 14-1273).
Assay [2] addresses T1, BV2373 (recombinant CoV S glycoprotein, Prototype) (SARS-CoV-2, UniProt P0DTC2 14-1273). The assay can be described thus: BLI, antibody on anti-mouse Fc biosensor, rS analyte. Background: In BLI a coated tip is dipped into the sample, and binding shifts an interference pattern.
Assay [3] addresses T2, BV2425 (recombinant CoV S glycoprotein, Alpha) (SARS-CoV-2, UniProt P0DTC2 14-1273). Described as above.
Assay [4] addresses T3, BV2443 (recombinant CoV S glycoprotein, Gamma) (SARS-CoV-2, UniProt P0DTC2 14-1273). The assay is described as above.
Assay [5] deals with T4, BV2465 (recombinant CoV S glycoprotein, Delta) (SARS-CoV-2, UniProt P0DTC2 14-1273). The description is as above.
Assay [6] addresses BV2509 (recombinant CoV S glycoprotein, BA.1) (SARS-CoV-2, UniProt P0DTC2 14-1273). The assay can be described thus: hACE2 receptor inhibition ELISA on coated rS; competitor hACE2-His.
Assay [7] addresses BV2523 (recombinant CoV S glycoprotein, BA.2) (SARS-CoV-2, UniProt P0DTC2 14-1273). Described as above.
In assay [8] the target is BV2540 (recombinant CoV S glycoprotein, BA.5) (SARS-CoV-2, UniProt P0DTC2 14-1273). The assay is described as above.
Assay [9] addresses T5, BV2541 (recombinant CoV S glycoprotein, BA.4) (SARS-CoV-2, UniProt P0DTC2 14-1273). The assay is described as above.
Assay [10] addresses BV2542 (recombinant CoV S glycoprotein, BA.2.12.1) (SARS-CoV-2, UniProt P0DTC2 14-1273). The description is as above.
Assay [11] has as its target BV2561 (recombinant CoV S glycoprotein, BA.2.75) (SARS-CoV-2, UniProt P0DTC2 14-1273). The assay is described as above.
The target in assay [12] is BV2562 (recombinant CoV S glycoprotein, BA.4.6) (SARS-CoV-2, UniProt P0DTC2 14-1273). Described as above.
In assay [13] the target is BV2589 (recombinant CoV S glycoprotein, BQ.1.1) (SARS-CoV-2, UniProt P0DTC2 14-1273). Described as above.
Assay [14] deals with T2, BV2425 (recombinant CoV S glycoprotein, …). In words: ELISA, plate coated with rS, serial dilution of the mAb, anti-mouse HRP, A450. (An ELISA detects its analyte on a solid surface through an enzyme-linked reagent.)
In assay [15] the target is BV2438 (recombinant CoV S glycoprotein, Beta) (SARS-CoV-2, UniProt P0DTC2 14-1273). The description is as above.
Assay [16] has as its target T3, BV2443 (recombinant CoV S glycoprotein, …). Described as above.
Assay [17] addresses T4, BV2465 (recombinant CoV S glycoprotein, …). The description is as above.
The target in assay [18] is T5, BV2541 (recombinant CoV S glycoprotein, …). The assay can be described thus: ELISA on coated rS.
Assay [19] has as its target T1, BV2373 (recombinant CoV S glycoprotein, …). The assay can be described thus: hACE2 receptor inhibition ELISA on coated rS; competitor hACE2-His.
In assay [20] the target is T4, BV2465 (recombinant CoV S glycoprotein, …). The description is as above.
Assay [21] has as its target T5, BV2541 (recombinant CoV S glycoprotein, …). The assay is described as above. The source holds these as a separate data set.

B1: 239.12 (antibody, V domains shown)
VH: EVKLEESGPVLVKPSQSLSLTCTVTGYSITSDYAWNWIRQFPGNKLEWMGYISNSAGTSYNPSLKSRISITRDTSKNQFFLQLNSVTTEDTATYYCASGGWSSYYAMDYWGQGTSVTVSS
VL: DIQMTQSPASLSASVGETVTITCGASENIYGALNWYQRKQGKSPQLLIYGATNLADGMSSRFSGSGSGRQYSLKISSLHPDDVATYYCQNVLSTPYTFGGGTKLEIKR
For the molecule B1, the EC50 – broadly, the concentration needed to bring the measured effect to its halfway point – in [1] was 0.0199 µg/mL; in [14], approximately 5 µg/mL; in [15], more than 5 µg/mL; in [16] it was approximately 5 µg/mL; in assay [17], 0.025 µg/mL. The Kd – broadly, the free concentration of one partner at which half of the binding sites on the other are occupied at equilibrium, for simple one-to-one binding – in assay [2] worked out at 3.81 pM; in [3], 2.26 pM; in assay [4], 4.31 pM; in assay [5], 3.45 pM. Further, the koff (as a rule, the rate constant with which the complex falls apart) in [2] came to 1.79e-07 s⁻¹; in assay [3] it was 1.62e-07 s⁻¹; in assay [4], 1.25e-07 s⁻¹. Moreover, the results for the kon in assay [2], in [3] and in assay [4] were 52900 M⁻¹ s⁻¹, 72800 M⁻¹ s⁻¹ and 29400 M⁻¹ s⁻¹, respectively. In addition, the IC50 (as a rule, the point on the concentration scale where inhibition reaches its midpoint) is more than 3 µg/mL in assay [6]; more than 3 µg/mL in assay [7]; more than 5 µg/mL in [8]; more than 3 µg/mL in [9]; more than 3 µg/mL in assay [10]; more than 5 µg/mL in assay [11]. The IC50 in assay [12] is more than 5 µg/mL; in assay [13], more than 3 µg/mL.

B2: 199.9 (antibody, V domains shown)
VH: LVQLQQPGAELVKPGASVKLSCKASGYTFTSYFMYWVRQRPGQGLEWIGEINPSNGGNDFNEKFKSKATLTVDKSSSTAYMQLSSLTSEDSAVYYCTRSGDYGYDGFAYWGQGTLVTVSA
VL: NIVLTQSPASLAVSLGQRATISCRASESVDTYGNSFMHWYQQKPGQPPKLLIYLASNLESGVPARFSGSGSRTDFTLTIDPVEADDAATYYCQQNNEDPLTFGAGTKLELK
In the case of B2, the EC50 in assay [18] is 0.016 µg/mL. Also, the IC50 in assay [19] was more than 3 µg/mL; in assay [20] it was more than 3 µg/mL; in assay [21] it was 0.038 µg/mL.
